Test results from patent publication EP2975059A1 (Kymab Limited, dated 2016).

Key:
Assay in all cases: SPR ProteOn XPR36, antibody captured on anti-human IgG, PCSK9 variant as analyte, 25 C, 1:1 model
Human PCSK9 form r = biological target: T1, Human PCSK9 form r (human, UniProt Q8NBP7 31-692)
T1 construct: also called PCSK9 r

Human PCSK9 form f = Human PCSK9 form f (human, UniProt Q8NBP7 31-692)
Human PCSK9 form c = biological target: T2, Human PCSK9 form c (human, UniProt Q8NBP7 31-692)
T2 construct: also called PCSK9 c

Human PCSK9 form p = biological target: T3, Human PCSK9 form p (human, UniProt Q8NBP7 31-692)
T3 construct: also called PCSK9 p

Human PCSK9 form a = biological target: T4, Human PCSK9 form a (human, UniProt Q8NBP7 31-692)
T4 construct: also called PCSK9 a

Row | Kd (Human PCSK9 form r) [nM] | koff (Human PCSK9 form r) [s⁻¹] | kon (Human PCSK9 form r) [M⁻¹ s⁻¹] | Kd (Human PCSK9 form f) [nM] | koff (Human PCSK9 form f) [s⁻¹] | kon (Human PCSK9 form f) [M⁻¹ s⁻¹] | Kd (Human PCSK9 form c) [nM] | koff (Human PCSK9 form c) [s⁻¹] | kon (Human PCSK9 form c) [M⁻¹ s⁻¹] | Kd (Human PCSK9 form p) [nM] | koff (Human PCSK9 form p) [s⁻¹] | kon (Human PCSK9 form p) [M⁻¹ s⁻¹] | Kd (Human PCSK9 form a) [nM] | koff (Human PCSK9 form a) [s⁻¹] | kon (Human PCSK9 form a) [M⁻¹ s⁻¹] | Binder
1 | 0.23 | 2.67e-05 | 116000 | 0.229 | 2.66e-05 | 116000 | 0.183 | 2.2e-05 | 120000 | 0.219 | 2.5e-05 | 114000 | 0.229 | 2.62e-05 | 114000 | Evolocumab (antibody, V domains shown) VH: QVQLVQSGAEVKKPGASVKVSCKASGYTLTSYGISWVRQAPGQGLEWMGWVSFYNGNTNYAQKLQGRGTMTTDPSTSTAYMELRSLRSDDTAVYYCARGYGMDVWGQGTTVTVSS VL: QSALTQPASVSGSPGQSITISCTGTSSDVGGYNSVSWYQQHPGKAPKLMIYEVSNRPSGVSNRFSGSKSGNTASLTISGLQAEDEADYYCNSYTSTSMVFGGGTKLTVL
2 | 0.197 | 0.000276 | 1.4e+06 | 0.203 | 0.000282 | 1.39e+06 | 0.184 | 0.000275 | 1.49e+06 | 0.196 | 0.000273 | 1.39e+06 | 0.201 | 0.000275 | 1.37e+06 | Antibody 316P (antibody, V domains shown) VH: EVQLVESGGGLVQPGGSLRLSCAASGFTFNNYAMNWVRQAPGKGLDWVSTISGSGGTTNYADSVKGRFIISRDSSKHTLYLQMNSLRAEDTAVYYCAKDSNWGNFDLWGRGTLVTVSS VL: not shown
